Data on one substance can be found in patent US20120156203A1.

The test deals with human IL13 (human) (UniProt P35225). The test is described as follows: cell-based or functional assay.
Chain of human IL13 (human) (P35225 other isoform, or with tags, fused parts or gaps limits assumed): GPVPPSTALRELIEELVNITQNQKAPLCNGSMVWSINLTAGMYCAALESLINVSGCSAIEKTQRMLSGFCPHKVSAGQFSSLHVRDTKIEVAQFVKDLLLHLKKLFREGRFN

On to “anti-IL13 MAb JES10-5A2 (BD Biosciences-Pharmingen) (antibody)”, for which the concentration for complete inhibition of IL13-suppressed CD14 expression on human monocytes (0.813 nM IL13) is greater than 80 nM.
